The values that follow come from US20240307507A1, “LACTOFERRIN COMPOSITIONS AND METHODS OF USE” (LACTEA THERAPEUTICS LLC, priority 2021, published 2024).

As usually defined, the EC50 is the concentration giving half of the maximal effect.

In series [1] the test system is lactoperoxidase (LPO). In words: Enzymatic colour assay for lactoperoxidase (LPO) activity. The format is biochemical. The note with it: colorimetric peroxidase substrate turning blue. An excerpt: An enzymatic assay for lactoperoxidase (LPO) activity was developed utilizing a molecule which in the presence of peroxidase activity turns a blue color.
The test system of series [2] is Salivary bacteria (including Lactobacillus, Lactococcus, and Streptococcus mutans). The experiment in a line: Salivary bacteria acid production by pH testing. The format is cell-based. The note with it: with sucrose, start pH 7, entire 6 hour period. The procedure: Salivary bacteria (including Lactobacillus, Lactococcus, and Streptococcus mutans) produce acid during growth. This acidification is strongly associated with tooth decay, particularly when it results in pH below 5.5, which is a clinically relevant threshold. A slurry of these bacteria were treated with sucrose to stimulate growth, as well as varying concentrations of API-E2 lactoferrin. Upon the addition of sucrose and API-E2 lactoferrin, the pH was adjusted to 7 through a titration and the change in pH was subsequently monitored over the next 6 hours.

A short description of series [3]: ELISA antibody binding of Lactoferrin. The note with it: same amount of protein by weight loaded. The procedure: Lactoferrin percentage can be assessed by an enzyme-linked immunosorbent assay (ELISA). In some instances, an ELISA can distinguish the percentage of Lactoferrin in a native protein conformation, such as by using an antibody that specifically binds the native protein conformation of Lactoferrin.
Lactoferrin purity was also assessed by ELISA.
For orientation: In an ELISA, binding on a coated surface is turned into a signal by an enzyme label.

Series [4] concerns ECM of primary buccal cells. The experiment in a line: Lactoferrin ECM association by immunofluorescence, primary buccal cells. In kind it is cell-based. The following applies: 100 ug/mL, 1 hr, 37 C. The procedure:
Primary buccal cells were next cultured according to a standard protocol (e.g., see Russo et al. Cytotechnology. 2016 October; 68(5): 2105-2114; herein incorporated by reference for all purposes). […] Immunofluorescence imaging was performed as previously described.

In series [5] the test system is SARS-COV-2. In words: SARS-COV-2 Cytopathic Effect (CPE) reduction assay in Vero E6 cells. The format is cell-based. The note with it: Vero E6 cells, neutral red, three days post-infection. (Protection from cytopathic effect is a common read-out in antiviral testing.)
Series [6] has as its system E. coli. The experiment in a line: Zone of inhibition test. The format is cell-based. As to the method:
A zone of inhibition test was performed to assess bioactivity of API-E2 Lactoferrin. A plate with E. coli was cultured with 100 μg/mL, 10 μg/mL, 1 μg/mL, and 0.1 μg/mL API-E2 Lactoferrin added to paper circles and allowed to diffuse out.

Series [7] in a line: Differential Scanning Calorimetry (DSC) unfolding of apolactoferrin and hololactoferrin forms. In kind it is physicochemical. As to the method: The assay was also performed with heat-treated API-E2 Lactoferrin. API-E2 Lactoferrin was heated across a range of 50-100° C.
Background: In DSC, transitions show as peaks or steps in heat flow.

A short description of series [8]: DSC iron binding capability with excess iron chloride. The note with it: iron chloride in 1000× molar excess. The procedure: The DSC assay was further used to assess Lactoferrin bioactivity, specifically the iron binding capability of the API-E2 Lactoferrin. Iron chloride (FeC13) was added in 1000× molar excess to API-E2 Lactoferrin. In the presence of excess iron, the API-E2 lactoferrin will bind the iron to its open iron binding site.

B1: API-E2: purified bovine lactoferrin from raw, untreated milk produced according to Example 1 (protein)
chain: APRKNVRWCTISQPEWFKCRRWQWRMKKLGAPSITCVRRAFALECIRAIAEKKADAVTLDGGMVFEAGRDPYKLRPVAAEIYGTKESPQTHYYAVAVVKKGSNFQLDQLQGRKSCHTGLGRSAGWIIPMGILRPYLSWTESLEPLQGAVAKFFSASCVPCIDRQAYPNLCQLCKGEGENQCACSSREPYFGYSGAFKCLQDGAGDVAFVKETTVFENLPEKADRDQYELLCLNNSRAPVDAFKECHLAQVPSHAVVARSVDGKEDLIWKLLSKAQEKFGKNKSRSFQLFGSPPGQRDLLFKDSALGFLRIPSKVDSALYLGSRYLTTLKNLRETAEEVKARYTRVVWCAVGPEEQKKCQQWSQQSGQNVTCATASTTDDCIVLVLKGEADALNLDGGYIYTAGKCGLVPVLAENRKSSKHSSLDCVLRPTEGYLAVAVVKKANEGLTWNSLKDKKSCHTAVDRTAGWNIPMGLIVNQTGSCAFDEFFSQSCAPGADPKSRLCALCAGDDQGLDKCVPNSKEKYYGYTGAFRCLAEDVGDVAFVKNDTVWENTNGESTADWAKNLNREDFRLLCLDGTRKPVTEAQSCHLAVAPNHAVVSRSDRAAHVKQVLLHQQALFGKNGKNCPDKFCLFKSETKNLLFNDNTECLAKLGGRPTYEEYLGTEYVTAIANLKKCSTSPLLEACAFLTR
Consider B1, for which the “LPO enzymatic activity in the sample” value in series [1] is “neither detected”. Moreover, the “pH maintained over testing period” value in series [2] (1 mg/mL) and in series [2] (10 mg/mL) was “above 5.5” throughout. In series [3], the “increase in antibody binding relative to existing research standards” value was 30%. In series [4], the “ECM association of Lactoferrin” value is recorded as “strong binding along the ECM”. In series [5], the EC50 was 90 nM. Also, the zone of inhibition entry is on record as “No zone of inhibition” in series [6] (0.1 μg/mL on paper circles), “limited zone of inhibition” in series [6] (1 μg/mL on paper circles), “complete inhibition” in series [6] (10 ug/mL on paper circles) and “complete inhibition” in series [6] (100 μg/mL on paper circles). Further, the “Delta H, apolactoferrin peak” value in series [7] (10 mg/mL) was determined as 111.4 ± 2.2 kcal/mol. In addition, in series [7] (10 mg/mL), the “Delta H, hololactoferrin peak” value is 151.2 ± 1.72 kcal/mol. Moreover, the “% of Total, apolactoferrin” value in series [7] (native sample without added iron) is given as 91.26 +/− 1.39% ^. Besides, the “available Apolactoferrin shifted to the Hololactoferrin form” value in series [8] amounted to 100%.

B2: heat-treated API-E2 Lactoferrin: API-E2 Lactoferrin heated across a range of 50-100° C. (protein, UniProt P24627 20-708, looked up)
Lactotransferrin: APRKNVRWCTISQPEWFKCRRWQWRMKKLGAPSITCVRRAFALECIRAIAEKKADAVTLDGGMVFEAGRDPYKLRPVAAEIYGTKESPQTHYYAVAVVKKGSNFQLDQLQGRKSCHTGLGRSAGWIIPMGILRPYLSWTESLEPLQGAVAKFFSASCVPCIDRQAYPNLCQLCKGEGENQCACSSREPYFGYSGAFKCLQDGAGDVAFVKETTVFENLPEKADRDQYELLCLNNSRAPVDAFKECHLAQVPSHAVVARSVDGKEDLIWKLLSKAQEKFGKNKSRSFQLFGSPPGQRDLLFKDSALGFLRIPSKVDSALYLGSRYLTTLKNLRETAEEVKARYTRVVWCAVGPEEQKKCQQWSQQSGQNVTCATASTTDDCIVLVLKGEADALNLDGGYIYTAGKCGLVPVLAENRKSSKHSSLDCVLRPTEGYLAVAVVKKANEGLTWNSLKDKKSCHTAVDRTAGWNIPMGLIVNQTGSCAFDEFFSQSCAPGADPKSRLCALCAGDDQGLDKCVPNSKEKYYGYTGAFRCLAEDVGDVAFVKNDTVWENTNGESTADWAKNLNREDFRLLCLDGTRKPVTEAQSCHLAVAPNHAVVSRSDRAAHVKQVLLHQQALFGKNGKNCPDKFCLFKSETKNLLFNDNTECLAKLGGRPTYEEYLGTEYVTAIANLKKCSTSPLLEACAFLTR
modifications: heat-treated
In the case of B2, in series [7] (same conditions as API-E2), the “DSC apolactoferrin and hololactoferrin peaks detected” value is “loss in both detectable peaks”.

B3: Lactoferrin (“Reagent”): purchased laboratory reagent grade Lactoferrin [Sigma Bovine Colostrum Lactoferrin] (protein, UniProt P24627 20-708, looked up)
Lactotransferrin: APRKNVRWCTISQPEWFKCRRWQWRMKKLGAPSITCVRRAFALECIRAIAEKKADAVTLDGGMVFEAGRDPYKLRPVAAEIYGTKESPQTHYYAVAVVKKGSNFQLDQLQGRKSCHTGLGRSAGWIIPMGILRPYLSWTESLEPLQGAVAKFFSASCVPCIDRQAYPNLCQLCKGEGENQCACSSREPYFGYSGAFKCLQDGAGDVAFVKETTVFENLPEKADRDQYELLCLNNSRAPVDAFKECHLAQVPSHAVVARSVDGKEDLIWKLLSKAQEKFGKNKSRSFQLFGSPPGQRDLLFKDSALGFLRIPSKVDSALYLGSRYLTTLKNLRETAEEVKARYTRVVWCAVGPEEQKKCQQWSQQSGQNVTCATASTTDDCIVLVLKGEADALNLDGGYIYTAGKCGLVPVLAENRKSSKHSSLDCVLRPTEGYLAVAVVKKANEGLTWNSLKDKKSCHTAVDRTAGWNIPMGLIVNQTGSCAFDEFFSQSCAPGADPKSRLCALCAGDDQGLDKCVPNSKEKYYGYTGAFRCLAEDVGDVAFVKNDTVWENTNGESTADWAKNLNREDFRLLCLDGTRKPVTEAQSCHLAVAPNHAVVSRSDRAAHVKQVLLHQQALFGKNGKNCPDKFCLFKSETKNLLFNDNTECLAKLGGRPTYEEYLGTEYVTAIANLKKCSTSPLLEACAFLTR
Take B3: in series [1], the “LPO enzymatic activity in the sample” value is reported as “does not result in a positive enzymatic reaction”. The “ECM association of Lactoferrin” value in series [4] is “only limited ECM association”. In series [5], the EC50 came out at 140 nM. For the same molecule, the “estimated ratio of the apolactoferrin to hololactoferrin peak” value in series [7] is reported as “nearly equal”. In addition, in series [7] (10 mg/mL), the “Tm, apolactoferrin peak” value was found to be 55 C and the “Tm, hololactoferrin peak” value was determined as 85 C.
